Assay results published in US20170306050A1.

Tests used:
Assay in all cases: cell-based or functional assay
CXCL11 = target: T1, CXCL11
T1 sequence (O14625 22-94, species assumed, looked up): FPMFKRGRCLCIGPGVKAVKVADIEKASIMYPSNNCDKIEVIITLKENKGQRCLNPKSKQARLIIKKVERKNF

CXCL9 = target: T2, CXCL9
T2 sequence (Q07325 23-125, species assumed, looked up): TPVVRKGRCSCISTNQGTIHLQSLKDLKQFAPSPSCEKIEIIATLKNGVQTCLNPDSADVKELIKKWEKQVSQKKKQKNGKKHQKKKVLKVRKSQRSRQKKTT

CXCL10 = target: CXCL10
Chain of CXCL10 (P02778 22-98): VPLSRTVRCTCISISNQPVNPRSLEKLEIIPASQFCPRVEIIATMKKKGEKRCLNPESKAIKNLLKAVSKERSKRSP

Chain of MMP9 (Example 10, in vitro enzymatic analyses) (enzyme) (P41245 108-730): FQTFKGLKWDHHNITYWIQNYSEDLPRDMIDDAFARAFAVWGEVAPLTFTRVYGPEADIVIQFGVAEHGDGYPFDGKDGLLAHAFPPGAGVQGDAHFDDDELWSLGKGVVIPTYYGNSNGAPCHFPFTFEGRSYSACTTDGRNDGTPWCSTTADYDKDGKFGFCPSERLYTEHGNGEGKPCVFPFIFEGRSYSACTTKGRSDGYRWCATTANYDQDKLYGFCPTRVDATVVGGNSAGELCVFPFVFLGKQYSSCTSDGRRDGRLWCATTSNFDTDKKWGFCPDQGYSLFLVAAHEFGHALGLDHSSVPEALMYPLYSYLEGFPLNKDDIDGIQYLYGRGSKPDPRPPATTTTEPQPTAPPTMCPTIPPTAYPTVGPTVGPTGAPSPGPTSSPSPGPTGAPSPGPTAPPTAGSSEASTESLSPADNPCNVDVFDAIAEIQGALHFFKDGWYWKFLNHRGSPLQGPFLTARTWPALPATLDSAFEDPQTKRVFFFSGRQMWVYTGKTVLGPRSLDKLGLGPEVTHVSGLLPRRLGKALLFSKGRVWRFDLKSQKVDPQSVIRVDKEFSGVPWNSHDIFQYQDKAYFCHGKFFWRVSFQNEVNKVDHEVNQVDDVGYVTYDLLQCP

in vitro enzymatic cleavage; T cell migration assay (CXCL11): < 88%
in vitro enzymatic cleavage; T cell migration assay (CXCL9): < 88%
in vitro enzymatic cleavage; T cell migration assay (CXCL10): < 88%
Substance: MMP9 (Example 10, in vitro enzymatic analyses) (enzyme)
